Data on 1 molecule can be found in US20250215091A1, “Anti-GAL3 Antibodies and Compositions” (Les Laboratoires Servier, priority 2022, published 2025).

For experiment [1], the system named is murine model of HOCI-induced fibrosis. In words: HOCI-induced murine fibrosis model: skin and lung collagen (Picrosirius red). The note with it: first experiment. In kind it is in vivo, mice.
The subject of experiment [2] is genes differentially regulated between HOCI group and control group in whole blood cells. In words: HOCI-induced murine fibrosis model: whole blood RNA sequencing. In kind it is in vivo, mice. The note with it: of 510 genes differentially regulated HOCI vs control; day 42, whole blood. As to the method:
In a first experiment, control mice (n=12) received a daily intradermal injection of 300 μL of sterile phosphate buffer saline (PBS) for 5 consecutive days per week, for a duration of 42 days. HOCI alone and HOCI with antibody (HOCI-antibody) treated mice (n=12 per group) received a daily intradermal injection of 300 μL of HOCI for 5 consecutive days per week, for a duration of 42 days. Antibody-treated mice also received a subcutaneous injection of 20 mg/kg antibody, starting at day minus one and every 5 days between day 5 and day 40. Each antibody was solubilized in sterile, endotoxin-free PBS before injection. In a second experiment, the same protocol was applied, except that duration of the study was 63 days and antibodies were given every 7 days starting at day minus 1 until day 62.
Mice that received daily injection of HOCI were also treated by intratracheal instillation of 0.5 mg/kg of TD139 compound (HOCI-TD139), a small molecule Gal3 inhibitor. In a first experiment, the administrations started from day 21 and the compound was given every 3 days until day 39. In a second experiment, the administrations started from day 20 and the compound was given every 3 days until day 62. TD139 was initially dissolved in 100% DMSO then diluted 50-fold in endotoxin-free PBS before administration.
In the first experiment, global gene expression was examined at day 42 in whole blood cells by RNA sequencing.
Whole blood was collected in RNA protect tubes (Qiagen) and were processed for RNA extraction using the RNeasy Protect Animal blood kit with the optional on-column DNAse I digestion. Total RNA samples were quantified on Nanodrop 2000 (ThermoFisher Scientific™) and analyzed on Bioanalyzer (Agilent) using RNA 6000 Nano chips to determine RNA quality (RIN). Total RNA matching the QC criteria were included in the study. Purified RNA samples were used as input for the TruSeq Strand-specific RNA-seq (poly A selection and globin depletion) according to manufacturer's protocol (Illumina). […]
Raw reads were processed using the in-house RNAExp Expression pipeline 2.1 and the quality was assessed using FastQC tools. Then, reads were trimmed for adaptors using Cutadapt and trimmed reads were aligned to mouse mm39 reference genome using the STAR aligner. Aligned data were evaluated for quality using Samtools and Picard tools. Then, aligned reads per gene were quantified using FeatureCount. […] Read count were normalized by the variance stabilizing transformation vst function from DESeq2 R package.
55,416 genes were detected in the data. […] Genes differentially expressed between groups were determined using a linear model (ImFit function from limma R package) on vst transformation gene expression dataset. […]

B1: E07: anti-Gal3 monoclonal antibody, IgG1 format; VH SEQ ID NO 42, VL SEQ ID NO 43 (antibody, V domains shown)
VH: EVQLVESGGSLVKPGGSLRLSCAASGFTFSNYNMNWVRQAPGKGLEWISNIYGSSRYIYYADFVKGRFTISRDNAKNSLYLQMNSLRAEDTAVYYCVRSYYGGMDVWGRGTLVTVSS
VL: QSVLTQPASVSGSPGQSITISCAGTSSDVGGYYSVSWYQQHPGKAPKLMIYYDSNRPSGVSNRFSGSKSGNTASLTISGLQAEDEADYYCSSYTGYSTRVFGGGTKLEIK
As to B1, in experiment [1] (day 42, FIG. 8A), the lung collagen levels entry is recorded as “restored lung collagen levels to those of control mice, reaching statistical significance”. The skin collagen levels result in experiment [1] (day 42, vs HOCI group, FIG. 8B) was “non significant downward trend”. For the same molecule, in experiment [2], the “number of HOCI-dysregulated genes counteracted by treatment” value was 445 genes and the “percentage of HOCI-dysregulated genes counteracted by treatment” value came out at 87.2%.
